Molecular target: ACE2-Fc, recombinant protein (Sino Biological 10108-H02H) (human, UniProt Q9BYF1)
Experiment: BLI

B1: BTN3A2-L-His, recombinant protein (Sino Biological 13515-H08H) (natural protein)
chain: not shown
For B1, the Kd was 92.7 ± 0.359 nM.

Reference: article PMC11367481 (eBioMedicine, 2024)
